This is an account of results in patent US11998613B2, “Antibody-drug conjugates containing an anti-mesothelin antibody and uses thereof” (DEVELOPMENT CENTER FOR BIOTECHNOLOGY, priority 2020, dated 2024).

In series [1] the test system is OVCAR-3 human ovarian cancer xenograft. Nature of the series: OVCAR-3 xenograft model (Example 46). Type of series: in vivo, female NOD SCID mice. Here is the method: (§1) Five mice were housed in each cage.
OVCAR-3 cells were subcutaneously (SC) implanted (1×10^7 cells in 1:1 PBS/matrigel mixture at 0.2 mL per mouse) into the right flank of female NOD SCID mice. […] Each of the vehicle, DCBPR2002-4(DBCO-vc-MMAE) (15 and 30 mg/kg), and DCBPR2002-4(DBCO-vc-seco-DUBA) (15 mg/kg) was intravenously administered once weekly for 3 weeks.
(§2) Differences are considered significant at *P<0.05.

The subject of series [2] is KLM-1 human pancreatic cancer xenograft. Nature of the series: KLM-1 xenograft model (Example 45). The settings on record: 15 mg/kg IV once weekly for 3 weeks. Here is the method:
Formulations respectively comprising test article DCBPR2002-4(DBCO-vc-MMAE)(15 mg/kg), test article DCBPR2002-4(DBCO-vc-seco-DUBA)(15 mg/kg), test article DCBPR2002-4(DBCO-s-DM1) (15 mg/kg), test article DCBPR2002-2(DBCO-vc-MMAE)-2(DBCO-vc-seco-DUBA) (15 mg/kg), test article DCBPR2002-2(DBCO-vc-MMAE)-2(DBCO-s-DM1) (15 mg/kg), test article DCBPR2002-2(DBCO-vc-seco-DUBA)-2(DBCO-s-DM1) (15 mg/kg), and a corresponding vehicle were formulated by diluting the stock with a 25 mM sodium citrate buffer (pH6.5). Each of the formulations was administered intravenously (IV) once weekly for three weeks.
The KLM-1 cells were maintained in vitro as a monolayer culture in RPMI-1640 medium supplemented with 10% fetal bovine serum at 37° C. in an atmosphere of 5% CO2 in air. The tumor cells were routinely sub-cultured twice weekly by trypsin-EDTA treatment. The cells growing in an exponential growth phase were harvested and counted for tumor inoculation.
Male NOD SCID mice at age of 6-7 weeks were purchased from BioLasco Taiwan Co., LTD. and quarantined for one week. Five mice were housed in each cage. All animals were hosted in the animal facility with a 12-h light/12-h dark cycle at 19-25° C. Animals had free access to rodent pellet foods and water ad libitum.
KLM-1 cells were subcutaneously (SC) implanted (4×10^6 cells in 1:1 PBS/matrigel mixture at 0.1 mL per mouse) into the right flank of male NOD SCID mice. When the average tumor volume had reached 300 mm^3, the mice were randomly divided into 7 groups (N=6 per group). Each of the vehicle, DCBPR2002-4(DBCO-vc-MMAE), DCBPR2002-4(DBCO-vc-seco-DUBA), DCBPR2002-4(DBCO-s-DM1), DCBPR2002-2(DBCO-vc-MMAE)-2(DBCO-vc-seco-DUBA), DCBPR2002-2(DBCO-vc-MMAE)-2(DBCO-s-DM1), DCBPR2002-2(DBCO-vc-seco-DUBA)-2(DBCO-s-DM1) was intravenously administered as 15 mg/kg once weekly for 3 weeks.
The tumor volumes, body weights, mortality, and signs of overt toxicity were monitored and recorded three times weekly for 28 days. Tumor volumes were measured three times per week using calipers and calculated according to the formula: Tumor Volume=(w2×l)/2, where w=width and l=length in diameter (mm) of the tumor. […] One-way ANOVA followed by Dunnett's test was applied for comparison between the vehicle and test article-treated groups. Differences are considered significant at *P<0.05. Animals were weighed three times weekly until the completion of the study.

Series [3] has the same test system. Put plainly: KLM-1 xenograft model (Example 44). The settings on record: for tumor growth / anti-tumor activity: TGI≥58% considered significant. It is filed as in vivo. Here is the method: Each of the formulations was administered intravenously (IV) to the mice once weekly for three weeks.
as §1
When the average tumor volume had reached 200 mm^3, the mice were randomLy divided into 4 groups (N=6 per group). Each of the vehicle, DCBPR2002-4(DBCO-vc-MMAE) (15 and 30 mg/kg), and naked antibody (DCBPR2002, 30 mg/kg) was intravenously administered once weekly for 3 weeks.
as §2

Series [4] concerns Ovarian carcinoma cell line OVCAR-3 (MSLN+). Nature of the series: In vitro cytotoxicity, CellTiter-Glo luminescent cell viability assay, OVCAR-3. The settings on record: OVCAR-3, 72 hours treatment; read-out: Relative IC50 (nM of toxic payload/ADCs). It is filed as cell-based, human. As for the experimental part:
The KLM-1 & OVCAR-3 cell lines were maintained in an atmosphere of 5% CO2 in a humidified 37° C. incubator. The day before treatment, cells were collected and seeded into 96-well plates (4,000 cells per well). On the second day, cells were treated with 3-fold serial dilution concentration of toxic payloads and ADCs. Each treatment was performed in eight triplicate data points. After the treatment of 72 hours, cell viability was assessed by CellTiter-Glo® kit (Promega) according to the manufacturer's instruction. At the end of the incubation, luminescence was measured using a SpectraMax i3x Multi Mode Detection Platform (Molecular Devices). Compound cytotoxicity was evaluated in comparison to cells treated with 0.05% PBS (ADCs) or 0.05% DMSO (toxic payload). IC50 values were calculated by fitting viability data with a four-parameter logistic equation using GraphPad prism 5.0 software.
For orientation: In ATP-based viability assays light output follows the ATP content of the culture.

The nature of series [5]: In vivo PK in rats, MSD ECL total and conjugated antibody assays. As to conditions: for AUC(0−last) / AUC(0−∞) / C0 / CL / MRT / Vss / t1/2: 5 mg/kg via the tail vein, serum. From the text:
This study used Meso Scale Discovery (MSD) Electrochemiluminescent (ECL) method to conduct the pharmacokinetic analysis of DCBPR2002-4(DBCO-vc-MMAE) in BALB/c mice and rat samples. The MSD assay can measure both conjugated and unconjugated antibodies. As illustrated in this example, or total antibody assay the plate is coated with goat anti-human IgG, which can capture all humanized antibodies (conjugated and unconjugated). For the conjugated antibody assay, the plate is coated with an antibody against the payload (drug), such as anti-MMAE antibody.
The in vivo pharmacokinetic study was designed for the comparison the linker-payload stability of trimannosyl-conjugated and cysteine-conjugated synthesis ADC (Adcetris). The rats were administered DCBPR2002-4(DBCO-vc-MMAE) and Adcetris at a dose level of 5 mg/kg via the tail vein. Serum samples were then obtained at different time points for determination of the concentrations of DCBPR2002-4(DBCO-vc-MMAE) and Adcetris in rats by MESO QuickPlex SQ 120 method. The pharmacokinetic parameters of DCBPR2002-4(DBCO-vc-MMAE) and Adcetris were analyzed by noncompartmental analysis using Phoenix™ for WinNonlin Program, version 6.3.

Setting [6] is: 15 mg/kg IV once weekly for 3 weeks.
Setting [7] is: 30 mg/kg IV once weekly for 3 weeks.

B1: DCBPR2002-4(DBCO-vc-MMAE): DCBPR2002-4Az reacted with DBCO-vc-MMAE; trimannosyl-conjugated ADC, DAR 3.89 (conjugate)
VH: QVQLVQSGAEVKKPGASVKVSCKASGYSFTGYTMNWVRQAPGQGLEWMGLITPYNGASSYNQKFRGRVTMTRDTSISTAYMELSRLRSDDTAVYYCARGGYDGRGFDYWGQGTLVTVSS
VL: EIVLTQSPATLSLSPGERATLSCSASSSVSYMHWYQQKPGQAPRLLIYDTSKLASGIPARFSGSGSGTDFTLTISSLEPEDFAVYYCQQWSKHPLTFGQGTKVEIKR
Broadly, the MRT is the average time that molecules of a dose stay in the body. What is called Vss is a proportionality between amount in the body and measured concentration, not a real space. Low values mean confinement near the circulation, high ones extensive tissue distribution. As for B1, the body weight changes result in series [1] (setting [6]) is reported as “No body weight loss was observed”. Also, the body weight changes result in series [1] (setting [7]) was “No body weight loss was observed”. In series [2], the body weight changes result is “No body weight loss was observed” and the “ranking of efficacy potency” value was “DCBPR2002-4(DBCO-vc-seco-DUBA)=DCBPR2002-2(DBCO-vc-MMAE)-2(DBCO-vc-seco-DUBA)=DCBPR2002-2(DBCO-vc-seco-DUBA)-2(DBCO-s-DM1)>DCBPR2002-4(DBCO-vc-MMAE)>DCBPR2002-2(DBCO-vc-MMAE)-2(DBCO-s-DM1)>DCBPR2002-4(DBCO-s-DM1)”. Moreover, in series [3] (setting [6]), the body weight changes entry is “No body weight loss was observed” and the “tumor growth / anti-tumor activity” value was “significantly reduced KLM-1 tumor growth from Day 7 to Day 28”. Besides, in series [3] (setting [7]), the body weight changes result is listed as “No body weight loss was observed” and the “tumor growth / anti-tumor activity” value is “significantly reduced KLM-1 tumor growth from Day 7 to Day 28”. In addition, the IC50 in series [4] turned out to be 1 nM. For the same molecule, in series [5] (Conjugated antibody), the “AUC(0−last)” value turned out to be 2334.505 µg·h/mL, the “AUC(0−∞)” value is 2400.45 µg·h/mL, the C0 worked out at 80.955 µg/mL and the CL was 2.1 mL/h/kg. In series [5] (Conjugated antibody), this molecule had a mean residence time (MRT) of 85.6 h, a volume of distribution (Vss) of 0.179 L/kg and a t1/2 of 148 ± 8.14 h. Besides, in series [5] (Total antibody), the “AUC(0−last)” value was determined as 4013.185 µg·h/mL, the “AUC(0−∞)” value worked out at 4363.325 µg·h/mL, the C0 turned out to be 94.121 µg/mL and the CL amounted to 1.14 mL/h/kg. For the same molecule, in series [5] (Total antibody), the mean residence time MRT is 160 h, the volume of distribution (Vss) was determined as 0.183 L/kg and the t1/2 amounted to 194 ± 35.0 h. Further, in series [5] (5 mg/kg, compared with Adcetris), the “difference between the curve of total antibody and conjugated antibody (stability of the conjugated linker-payload)” value is recorded as “closed on DCBPR2002-4(DBCO-vc-MMAE) than that of Adcetris”.
